This is an account of results in publication PMC11785957 (2025).

This experiment addresses human TLR3 ectodomain (Wuxi Biologics, C-terminal His and Avi tags) (human, UniProt O15455 24-704, biotinylated (for yeast display)). The experiment can be described thus: BLI. For orientation: BLI is a label-free optical method that tracks binding on a fibre tip over time.

Where no end group is shown, it is not given here.

B1: minibinder 8 (designed binder)
chain: SLEEEAERVVEELVKEFNLSETQEIALRRYAEFAAKAGASEEVIEELLRRVAERLS
modifications: also: biotinylated (site not given here)
With B1, the Kd (as a rule, a measure of binding affinity in units of concentration) is 1200 nM. This lies in the single-digit micromolar range.

B2: minibinder 7 (designed binder)
chain: SAMERYVKVLLRTAELAREAGDPEDVRKALEKAELVARILHNEELKEEIREVEEEL
modifications: also: biotinylated (site not given here)
With B2, the Kd stood at 440 nM.
